Test results as given in article PMC9367177.
pKd: −log10 of the molar value. Where two headings read alike, the source gives them in different places.

Experiments:
[1] = molecular target: SARS-CoV-2 RBD (Wuhan-1) (SARS-CoV-2, Wuhan-1) (UniProt P0DTC2); assay: SPR
[2] = molecular target: SARS-CoV-2 RBD (Wuhan-1) (SARS-CoV-2, Wuhan-1) (UniProt P0DTC2); assay: SPR; remark: listed apart in the source

**Q.** Which kon [1] does the source give for CC12.1 (antibody) here?
**A.** 696000 M⁻¹ s⁻¹

**Q.** And the pKd [2]?
**A.** 8.23

**Q.** What about the koff [2] of the same substance?
**A.** 0.00412 s⁻¹

**Q.** What about the kon [2] of the same substance?
**A.** 695000 M⁻¹ s⁻¹
